The target of assay [1] is T1, human glucagon-like peptide-2 receptor (human, UniProt O95838 1-553).
T1 sequence (looked up): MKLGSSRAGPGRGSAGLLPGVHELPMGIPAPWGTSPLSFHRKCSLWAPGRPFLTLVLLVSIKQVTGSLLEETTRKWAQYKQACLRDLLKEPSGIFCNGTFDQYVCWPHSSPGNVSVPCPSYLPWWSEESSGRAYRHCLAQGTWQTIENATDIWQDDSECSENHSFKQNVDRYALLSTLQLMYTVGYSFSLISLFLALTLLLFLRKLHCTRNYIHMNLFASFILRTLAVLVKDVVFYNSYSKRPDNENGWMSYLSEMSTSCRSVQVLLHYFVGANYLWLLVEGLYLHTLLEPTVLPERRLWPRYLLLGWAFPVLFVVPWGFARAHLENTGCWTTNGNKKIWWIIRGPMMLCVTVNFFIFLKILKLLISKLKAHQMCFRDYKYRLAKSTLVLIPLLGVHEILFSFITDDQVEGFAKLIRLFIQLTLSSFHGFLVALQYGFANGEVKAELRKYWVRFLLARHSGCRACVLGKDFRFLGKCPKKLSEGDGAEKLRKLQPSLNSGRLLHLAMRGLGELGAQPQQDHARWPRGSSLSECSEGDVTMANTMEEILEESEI
The experiment in a line: cell-based or functional assay.

Assay [2] concerns the target T2, human glucose-dependent insulinotropic polypeptide receptor (human, UniProt P48546 22-466).
T2 sequence (looked up): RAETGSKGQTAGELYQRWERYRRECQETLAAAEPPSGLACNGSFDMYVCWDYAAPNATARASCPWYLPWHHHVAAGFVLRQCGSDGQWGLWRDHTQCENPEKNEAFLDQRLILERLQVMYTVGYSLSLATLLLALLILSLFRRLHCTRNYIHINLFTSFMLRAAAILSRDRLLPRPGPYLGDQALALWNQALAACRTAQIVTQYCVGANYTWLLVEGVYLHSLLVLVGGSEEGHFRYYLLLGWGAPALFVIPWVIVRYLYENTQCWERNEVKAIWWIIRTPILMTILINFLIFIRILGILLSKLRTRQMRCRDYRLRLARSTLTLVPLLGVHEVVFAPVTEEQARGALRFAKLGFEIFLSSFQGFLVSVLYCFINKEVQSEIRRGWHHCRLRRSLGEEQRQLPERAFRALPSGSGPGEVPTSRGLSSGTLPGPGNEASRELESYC
The experiment in a line: cell-based or functional assay.

The values that follow come from patent US20250304643A1 (BAINAN BIOTECH, published 2025).

*1 amine or outer side, *2 acyl side, *3 side chain or, on linkers, in order; H or OH if unused. Where no end group is shown, it is not given here. Side-chain parts run from the residue outwards. [ ]: non-standard residue; d: D form. The star is where a group is joined. C16 diacid = O=C(O)CCCCCCCCCCCCCCC(=O)*; γGlu = O=C(O)[C@H](CCC(=O)[*:2])N[*:1]; Palmitoyl = CCCCCCCCCCCCCCCC(=O)*; Aib = CC(C)(N)C(=O)O

B1: Compound no. 39 (peptide)
peptide: {C16 diacid}-HADGTFISDYST[Aib]LDNLAARDFINWLIQTKITKNDWKHNITQ
Turning to B1, in assay [1], the “EC50 (nM) GLP-2R” value came to 1 nM, the “Efficacy GLP-2R” value was 78% and the “logEC50 GLP-2R” value stood at 9. The “Efficacy GIPR” value in assay [2] stood at 99%.

B2: Compound no. 38 (peptide)
peptide: Ac-H[Aib]DGTFISDYK([γGlu-Palmitoyl])T[Aib]LDNLAARDFINWLIQTKITKNDWKHNITQ-OH
Turning to B2, the “Efficacy GLP-2R” value in assay [1] is 89%. Further, in assay [2], the “Efficacy GIPR” value was found to be 81%.

B3: Compound no. 40 (peptide)
peptide: {C16 diacid}-H[Aib]DGTFISDYST[Aib]LDNLAARDFINWLIQTKITKNDWKHNITQ-OH
For the molecule B3, in assay [1], the “Efficacy GLP-2R” value came out at 96% and the “logEC50 GLP-2R” value came out at 9. In addition, in assay [2], the “EC50 (nM) GIPR” value amounted to 1 nM and the “Efficacy GIPR” value was determined as 94%.

B4: Compound no. 34 (peptide)
peptide: Ac-H[Aib]DGTFISDYK([γGlu-Palmitoyl])T[Aib]LDNLAARDFINWLIQTKITK-OH
SMILES: CCCCCCCCCCCCCCCC(=O)N[C@@H](CCC(=O)NCCCC[C@H](NC(=O)[C@H](Cc1ccc(O)cc1)NC(=O)[C@H](CC(=O)O)NC(=O)[C@H](CO)NC(=O)[C@@H](NC(=O)[C@H](Cc1ccccc1)NC(=O)[C@@H](NC(=O)CNC(=O)[C@H](CC(=O)O)NC(=O)C(C)(C)NC(=O)[C@H](Cc1c[nH]cn1)NC(C)=O)[C@@H](C)O)[C@@H](C)CC)C(=O)N[C@H](C(=O)NC(C)(C)C(=O)N[C@@H](CC(C)C)C(=O)N[C@@H](CC(=O)O)C(=O)N[C@@H](CC(N)=O)C(=O)N[C@@H](CC(C)C)C(=O)N[C@@H](C)C(=O)N[C@@H](C)C(=O)N[C@@H](CCCNC(=N)N)C(=O)N[C@@H](CC(=O)O)C(=O)N[C@@H](Cc1ccccc1)C(=O)N[C@H](C(=O)N[C@@H](CC(N)=O)C(=O)N[C@@H](Cc1c[nH]c2ccccc12)C(=O)N[C@@H](CC(C)C)C(=O)N[C@H](C(=O)N[C@@H](CCC(N)=O)C(=O)N[C@H](C(=O)N[C@@H](CCCCN)C(=O)N[C@H](C(=O)N[C@H](C(=O)N[C@@H](CCCCN)C(=O)O)[C@@H](C)O)[C@@H](C)CC)[C@@H](C)O)[C@@H](C)CC)[C@@H](C)CC)[C@@H](C)O)C(=O)O
On to B4, for which the “Efficacy GLP-2R” value in assay [1] was determined as 103%. Moreover, in assay [2], the “EC50 (nM) GIPR” value turned out to be 10 nM and the “Efficacy GIPR” value was 75%.

B5: Compound no. 41 (peptide)
peptide: {C16 diacid}-H[Aib]EGTFISDYST[Aib]LDALAARDFINWLIQTKITKNDWKHNITQ-OH
With B5, in assay [1], the “Efficacy GLP-2R” value was found to be 74% and the “logEC50 GLP-2R” value is 8.8. Further, the “Efficacy GIPR” value in assay [2] was found to be 91%.

B6: Compound no. 33 (peptide)
peptide: H[Aib]DGTFISDYK([γGlu-Palmitoyl])T[Aib]LDALAARDFIEWLIQTKITK-OH
modifications: N-terminus assumed
SMILES: CCCCCCCCCCCCCCCC(=O)N[C@@H](CCC(=O)NCCCC[C@H](NC(=O)[C@H](Cc1ccc(O)cc1)NC(=O)[C@H](CC(=O)O)NC(=O)[C@H](CO)NC(=O)[C@@H](NC(=O)[C@H](Cc1ccccc1)NC(=O)[C@@H](NC(=O)CNC(=O)[C@H](CC(=O)O)NC(=O)C(C)(C)NC(=O)[C@@H](N)Cc1c[nH]cn1)[C@@H](C)O)[C@@H](C)CC)C(=O)N[C@H](C(=O)NC(C)(C)C(=O)N[C@@H](CC(C)C)C(=O)N[C@@H](CC(=O)O)C(=O)N[C@@H](C)C(=O)N[C@@H](CC(C)C)C(=O)N[C@@H](C)C(=O)N[C@@H](C)C(=O)N[C@@H](CCCNC(=N)N)C(=O)N[C@@H](CC(=O)O)C(=O)N[C@@H](Cc1ccccc1)C(=O)N[C@H](C(=O)N[C@@H](CCC(=O)O)C(=O)N[C@@H](Cc1c[nH]c2ccccc12)C(=O)N[C@@H](CC(C)C)C(=O)N[C@H](C(=O)N[C@@H](CCC(N)=O)C(=O)N[C@H](C(=O)N[C@@H](CCCCN)C(=O)N[C@H](C(=O)N[C@H](C(=O)N[C@@H](CCCCN)C(=O)O)[C@@H](C)O)[C@@H](C)CC)[C@@H](C)O)[C@@H](C)CC)[C@@H](C)CC)[C@@H](C)O)C(=O)O
B6: in assay [1], the “Efficacy GLP-2R” value worked out at 97%. Besides, the “Efficacy GIPR” value in assay [2] was 101%.
